{
  "source": "paper PMC9482650",
  "about": "“Quantitative fragmentomics allow affinity mapping of interactomes” (Nature Communications, 2022)",
  "experiment_in_all_cases": "holdup assay",
  "parameters_in_all_cases": "key: below the threshold = too weak to quantify, mostly under pKd 3.1 to 4",
  "key": {"LNX1_3, Q8TBB1": {"target": "LNX1_3, Q8TBB1", "sequence (Q8TBB1 500-596)": "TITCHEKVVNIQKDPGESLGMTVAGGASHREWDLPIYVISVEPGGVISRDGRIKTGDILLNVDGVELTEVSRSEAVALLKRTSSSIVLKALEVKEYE"}, "GRASP, Q7Z6J2": {"target": "GRASP, Q7Z6J2", "sequence (Q7Z6J2 96-193)": "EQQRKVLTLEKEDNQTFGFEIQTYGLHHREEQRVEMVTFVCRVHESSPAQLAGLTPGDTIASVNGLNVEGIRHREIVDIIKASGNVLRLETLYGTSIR"}, "Inadl_10, Q8NI35": {"target": "Inadl_10, Q8NI35", "sequence (Q8NI35 1673-1763)": "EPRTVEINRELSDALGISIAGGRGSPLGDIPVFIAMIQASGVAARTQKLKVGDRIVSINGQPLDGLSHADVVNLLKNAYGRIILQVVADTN"}, "APBA2_2, Q99767": {"target": "T1, APBA2_2, Q99767", "T1 sequence (Q99767 654-744, limits assumed, looked up)": "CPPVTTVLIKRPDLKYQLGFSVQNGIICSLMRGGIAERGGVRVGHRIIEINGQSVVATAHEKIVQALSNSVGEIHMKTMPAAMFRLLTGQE"}, "GRIP2_5, Q9C0E4": {"target": "GRIP2_5, Q9C0E4", "sequence (Q9C0E4 544-642)": "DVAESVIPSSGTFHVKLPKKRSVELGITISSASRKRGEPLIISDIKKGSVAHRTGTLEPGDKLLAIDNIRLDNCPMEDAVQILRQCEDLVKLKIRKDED"}, "Inadl_1, Q8NI35": {"target": "Inadl_1, Q8NI35", "sequence (Q8NI35 113-229)": "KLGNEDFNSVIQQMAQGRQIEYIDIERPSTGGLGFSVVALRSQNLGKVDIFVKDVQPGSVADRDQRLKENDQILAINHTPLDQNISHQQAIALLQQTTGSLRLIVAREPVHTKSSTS"}, "LAP2, Q96RT1": {"target": "LAP2, Q96RT1", "sequence (Q96RT1 other isoform, or with tags, fused parts or gaps)": "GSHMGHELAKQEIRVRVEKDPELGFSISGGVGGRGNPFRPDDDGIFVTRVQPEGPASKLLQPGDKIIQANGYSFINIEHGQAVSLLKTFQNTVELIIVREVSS"}, "MAGI3_2, Q5TCQ9": {"target": "MAGI3_2, Q5TCQ9", "sequence (Q5TCQ9 398-503)": "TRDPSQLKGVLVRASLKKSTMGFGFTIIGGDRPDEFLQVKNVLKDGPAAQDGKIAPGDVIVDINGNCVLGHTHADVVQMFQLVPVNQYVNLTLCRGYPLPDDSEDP"}, "DLG4_2, P78352": {"target": "DLG4_2, P78352", "sequence (P78352 155-259)": "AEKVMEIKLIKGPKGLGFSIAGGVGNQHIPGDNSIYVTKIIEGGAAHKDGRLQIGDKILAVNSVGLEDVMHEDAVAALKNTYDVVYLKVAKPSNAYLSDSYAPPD"}, "HTRA1, Q92743": {"target": "HTRA1, Q92743", "sequence (Q92743 360-477)": "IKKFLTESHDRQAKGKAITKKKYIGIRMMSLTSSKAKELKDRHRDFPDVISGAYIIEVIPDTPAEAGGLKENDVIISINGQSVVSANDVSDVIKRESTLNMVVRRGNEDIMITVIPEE"}, "DLG4_1, P78352": {"target": "DLG4_1, P78352", "sequence (P78352 62-152)": "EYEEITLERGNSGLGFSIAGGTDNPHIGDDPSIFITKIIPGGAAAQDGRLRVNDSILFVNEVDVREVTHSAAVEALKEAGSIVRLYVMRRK"}, "FRMPD4, Q14CM0": {"target": "FRMPD4, Q14CM0", "sequence (Q14CM0 67-160)": "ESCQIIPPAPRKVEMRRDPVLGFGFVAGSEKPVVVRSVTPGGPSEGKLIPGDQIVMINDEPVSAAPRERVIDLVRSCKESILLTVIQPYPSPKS"}, "IL16_4, Q14005": {"target": "IL16_4, Q14005", "sequence (Q14005 1229-1329)": "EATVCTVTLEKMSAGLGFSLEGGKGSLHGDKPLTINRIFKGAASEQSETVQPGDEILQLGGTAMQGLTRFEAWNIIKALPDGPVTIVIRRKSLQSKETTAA"}, "PDLIM1, O00151": {"target": "PDLIM1, O00151", "sequence (O00151 1-87)": "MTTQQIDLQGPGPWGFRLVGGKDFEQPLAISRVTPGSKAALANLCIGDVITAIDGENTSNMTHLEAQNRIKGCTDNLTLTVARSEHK"}, "LNX1_2, Q8TBB1": {"target": "LNX1_2, Q8TBB1", "sequence (Q8TBB1 371-470)": "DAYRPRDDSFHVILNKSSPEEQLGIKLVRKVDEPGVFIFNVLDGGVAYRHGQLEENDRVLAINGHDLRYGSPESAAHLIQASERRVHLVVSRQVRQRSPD"}, "GRID2IP_2, A4D2P6": {"target": "GRID2IP_2, A4D2P6", "sequence (A4D2P6 272-370)": "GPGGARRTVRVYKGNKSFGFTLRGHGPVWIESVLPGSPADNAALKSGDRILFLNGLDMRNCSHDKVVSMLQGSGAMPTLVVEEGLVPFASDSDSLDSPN"}, "Inadl_6, Q8NI35": {"target": "Inadl_6, Q8NI35", "sequence (Q8NI35 1058-1167)": "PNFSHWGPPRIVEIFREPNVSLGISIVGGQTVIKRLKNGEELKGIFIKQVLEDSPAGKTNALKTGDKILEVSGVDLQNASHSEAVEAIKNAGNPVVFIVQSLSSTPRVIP"}, "GORASP2, Q9H8Y8": {"target": "GORASP2, Q9H8Y8"}, "DLG1_2, Q12959": {"target": "DLG1_2, Q12959", "sequence (Q12959 314-412)": "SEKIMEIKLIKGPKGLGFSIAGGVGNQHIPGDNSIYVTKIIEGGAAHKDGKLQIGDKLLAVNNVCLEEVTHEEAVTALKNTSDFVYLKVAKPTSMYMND"}, "ARHGAP21, Q5T5U3": {"target": "T2, ARHGAP21, Q5T5U3", "T2 sequence (Q5T5U3 45-169, limits assumed, looked up)": "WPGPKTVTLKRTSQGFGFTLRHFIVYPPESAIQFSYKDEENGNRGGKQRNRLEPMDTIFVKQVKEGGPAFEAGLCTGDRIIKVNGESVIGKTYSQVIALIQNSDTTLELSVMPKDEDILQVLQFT"}, "DLG4_3, P78352": {"target": "DLG4_3, P78352", "sequence (P78352 306-403)": "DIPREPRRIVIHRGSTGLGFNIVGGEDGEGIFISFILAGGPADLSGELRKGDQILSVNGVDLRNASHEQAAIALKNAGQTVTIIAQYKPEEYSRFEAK"}, "HTRA2, O43464": {"target": "HTRA2, O43464", "sequence (O43464 355-458)": "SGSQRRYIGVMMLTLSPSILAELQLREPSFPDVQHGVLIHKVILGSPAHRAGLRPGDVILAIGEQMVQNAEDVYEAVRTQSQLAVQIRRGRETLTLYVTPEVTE"}, "IL16_1, Q14005": {"target": "IL16_1, Q14005", "sequence (Q14005 210-306)": "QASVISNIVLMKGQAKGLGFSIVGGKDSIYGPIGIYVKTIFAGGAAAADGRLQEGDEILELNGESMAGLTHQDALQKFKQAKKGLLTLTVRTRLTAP"}, "SHANK1, Q9Y566": {"target": "T3, SHANK1, Q9Y566", "T3 sequence (Q9Y566 658-767, limits assumed, looked up)": "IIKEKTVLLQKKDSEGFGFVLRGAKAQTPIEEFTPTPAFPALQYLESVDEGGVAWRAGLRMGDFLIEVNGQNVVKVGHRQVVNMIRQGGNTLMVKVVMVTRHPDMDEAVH"}, "SNTB1, Q13884": {"target": "T4, SNTB1, Q13884", "T4 sequence (Q13884 107-205, limits assumed, looked up)": "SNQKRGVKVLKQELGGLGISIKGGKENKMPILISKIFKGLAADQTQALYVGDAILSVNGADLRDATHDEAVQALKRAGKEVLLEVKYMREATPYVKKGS"}, "MAGI2_5, Q86UL8": {"target": "MAGI2_5, Q86UL8", "sequence (Q86UL8 915-1017)": "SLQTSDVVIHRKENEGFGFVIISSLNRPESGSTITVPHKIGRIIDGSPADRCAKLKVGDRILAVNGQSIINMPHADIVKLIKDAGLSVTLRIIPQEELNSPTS"}, "MAGI2_4, Q86UL8": {"target": "MAGI2_4, Q86UL8", "sequence (Q86UL8 772-865)": "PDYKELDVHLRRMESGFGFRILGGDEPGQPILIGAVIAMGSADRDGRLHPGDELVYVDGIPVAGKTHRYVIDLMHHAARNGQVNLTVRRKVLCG"}, "GIPC2, Q8TF65": {"target": "GIPC2, Q8TF65", "sequence (Q8TF65 112-203)": "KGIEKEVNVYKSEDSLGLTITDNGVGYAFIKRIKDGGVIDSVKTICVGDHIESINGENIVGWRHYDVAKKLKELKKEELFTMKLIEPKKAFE"}, "MAST1, Q9Y2H9": {"target": "MAST1, Q9Y2H9", "sequence (Q9Y2H9 962-1065)": "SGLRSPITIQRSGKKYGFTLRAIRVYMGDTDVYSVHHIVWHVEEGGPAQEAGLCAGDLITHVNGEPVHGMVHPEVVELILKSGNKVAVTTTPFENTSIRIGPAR"}, "PDZD2_2, O15018": {"target": "T5, PDZD2_2, O15018", "T5 sequence (O15018 329-429, limits assumed, looked up)": "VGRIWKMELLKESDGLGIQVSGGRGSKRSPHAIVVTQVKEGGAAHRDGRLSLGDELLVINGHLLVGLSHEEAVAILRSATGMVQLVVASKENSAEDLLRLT"}, "MAST2, Q6P0Q8": {"target": "MAST2, Q6P0Q8", "sequence (Q6P0Q8 1099-1202)": "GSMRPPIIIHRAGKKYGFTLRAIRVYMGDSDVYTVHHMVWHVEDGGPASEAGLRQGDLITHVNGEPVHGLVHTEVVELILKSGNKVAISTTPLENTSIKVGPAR"}, "DLG2_3, Q15700": {"target": "DLG2_3, Q15700"}, "RADIL, Q96JH8": {"target": "T6, RADIL, Q96JH8", "T6 sequence (Q96JH8 971-1071, limits assumed, looked up)": "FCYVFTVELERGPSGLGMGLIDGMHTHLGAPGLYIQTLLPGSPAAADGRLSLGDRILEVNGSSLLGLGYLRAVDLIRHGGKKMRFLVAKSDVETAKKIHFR"}, "[1]": {"details": "plain residues with an end cap or a label only (N-terminal biotin on a linker: ado-ado)"}, "[2]": {"details": "plain residues with an end cap or a label only (N-terminal biotin on a linker: (peg)3)"}},
  "data": [
    {"binder": "AEASVACSLC", "note": "[PTGIR, P43119]", "values": [
      {"measurement": "pKd", "setting": "LNX1_3, Q8TBB1; [1]", "result": "below the threshold"},
      {"measurement": "pKd", "setting": "GRASP, Q7Z6J2; [1]", "result": 4.43},
      {"measurement": "pKd", "setting": "Inadl_10, Q8NI35; [1]", "result": "below the threshold"},
      {"measurement": "pKd", "setting": "APBA2_2, Q99767; [1]", "result": "below the threshold"},
      {"measurement": "pKd", "setting": "GRIP2_5, Q9C0E4; [1]", "result": "below the threshold"},
      {"measurement": "pKd", "setting": "Inadl_1, Q8NI35; [1]", "result": "below the threshold"},
      {"measurement": "pKd", "setting": "LAP2, Q96RT1; [1]", "result": "below the threshold"},
      {"measurement": "pKd", "setting": "MAGI3_2, Q5TCQ9; [1]", "result": "below the threshold"},
      {"measurement": "pKd", "setting": "DLG4_2, P78352; [1]", "result": "below the threshold"},
      {"measurement": "pKd", "setting": "HTRA1, Q92743; [1]", "result": 3.93},
      {"measurement": "pKd", "setting": "DLG4_1, P78352; [1]", "result": "below the threshold"},
      {"measurement": "pKd", "setting": "FRMPD4, Q14CM0; [1]", "result": "below the threshold"},
      {"measurement": "pKd", "setting": "IL16_4, Q14005; [1]", "result": "below the threshold"},
      {"measurement": "pKd", "setting": "PDLIM1, O00151; [1]", "result": "below the threshold"},
      {"measurement": "pKd", "setting": "LNX1_2, Q8TBB1; [1]", "result": 3.68},
      {"measurement": "pKd", "setting": "GRID2IP_2, A4D2P6; [1]", "result": 3.77},
      {"measurement": "pKd", "setting": "Inadl_6, Q8NI35; [1]", "result": "below the threshold"},
      {"measurement": "pKd", "setting": "GORASP2, Q9H8Y8; [1]", "result": "below the threshold"},
      {"measurement": "pKd", "setting": "DLG1_2, Q12959; [1]", "result": "below the threshold"},
      {"measurement": "pKd", "setting": "ARHGAP21, Q5T5U3; [1]", "result": "below the threshold"},
      {"measurement": "pKd", "setting": "DLG4_3, P78352; [1]", "result": "below the threshold"},
      {"measurement": "pKd", "setting": "HTRA2, O43464; [1]", "result": 3.78},
      {"measurement": "pKd", "setting": "IL16_1, Q14005; [1]", "result": "below the threshold"},
      {"measurement": "pKd", "setting": "SHANK1, Q9Y566; [1]", "result": 3.65},
      {"measurement": "pKd", "setting": "SNTB1, Q13884; [1]", "result": "below the threshold"},
      {"measurement": "pKd", "setting": "MAGI2_5, Q86UL8; [1]", "result": 4.98},
      {"measurement": "pKd", "setting": "MAGI2_4, Q86UL8; [1]", "result": 3.72},
      {"measurement": "pKd", "setting": "GIPC2, Q8TF65; [1]", "result": 3.75},
      {"measurement": "pKd", "setting": "MAST1, Q9Y2H9; [1]", "result": "below the threshold"},
      {"measurement": "pKd", "setting": "PDZD2_2, O15018; [1]", "result": 4.29},
      {"measurement": "pKd", "setting": "MAST2, Q6P0Q8; [1]", "result": 4.32},
      {"measurement": "pKd", "setting": "DLG2_3, Q15700; [1]", "result": 3.49},
      {"measurement": "pKd", "setting": "RADIL, Q96JH8; [1]", "result": 3.94}
    ]},
    {"binder": "RRRRSQSRESQC", "note": "[HBV-HBc, P03193]", "values": [
      {"measurement": "pKd", "setting": "LNX1_3, Q8TBB1; [2]", "result": "below the threshold"},
      {"measurement": "pKd", "setting": "GRASP, Q7Z6J2; [2]", "result": "below the threshold"},
      {"measurement": "pKd", "setting": "Inadl_10, Q8NI35; [2]", "result": "below the threshold"},
      {"measurement": "pKd", "setting": "APBA2_2, Q99767; [2]", "result": "below the threshold"},
      {"measurement": "pKd", "setting": "GRIP2_5, Q9C0E4; [2]", "result": "below the threshold"},
      {"measurement": "pKd", "setting": "Inadl_1, Q8NI35; [2]", "result": "below the threshold"},
      {"measurement": "pKd", "setting": "LAP2, Q96RT1; [2]", "result": "below the threshold"},
      {"measurement": "pKd", "setting": "MAGI3_2, Q5TCQ9; [2]", "result": 4.64},
      {"measurement": "pKd", "setting": "DLG4_2, P78352; [2]", "result": 4.3},
      {"measurement": "pKd", "setting": "HTRA1, Q92743; [2]", "result": "below the threshold"},
      {"measurement": "pKd", "setting": "DLG4_1, P78352; [2]", "result": 4.31},
      {"measurement": "pKd", "setting": "FRMPD4, Q14CM0; [2]", "result": "below the threshold"},
      {"measurement": "pKd", "setting": "IL16_4, Q14005; [2]", "result": 3.68},
      {"measurement": "pKd", "setting": "PDLIM1, O00151; [2]", "result": "below the threshold"},
      {"measurement": "pKd", "setting": "LNX1_2, Q8TBB1; [2]", "result": "below the threshold"},
      {"measurement": "pKd", "setting": "GRID2IP_2, A4D2P6; [2]", "result": "below the threshold"},
      {"measurement": "pKd", "setting": "Inadl_6, Q8NI35; [2]", "result": "below the threshold"},
      {"measurement": "pKd", "setting": "GORASP2, Q9H8Y8; [2]", "result": "below the threshold"},
      {"measurement": "pKd", "setting": "DLG1_2, Q12959; [2]", "result": 4.58},
      {"measurement": "pKd", "setting": "ARHGAP21, Q5T5U3; [2]", "result": "below the threshold"},
      {"measurement": "pKd", "setting": "DLG4_3, P78352; [2]", "result": 4.58},
      {"measurement": "pKd", "setting": "HTRA2, O43464; [2]", "result": "below the threshold"},
      {"measurement": "pKd", "setting": "IL16_1, Q14005; [2]", "result": "below the threshold"},
      {"measurement": "pKd", "setting": "SHANK1, Q9Y566; [2]", "result": "below the threshold"},
      {"measurement": "pKd", "setting": "SNTB1, Q13884; [2]", "result": 4.78},
      {"measurement": "pKd", "setting": "MAGI2_5, Q86UL8; [2]", "result": 3.89},
      {"measurement": "pKd", "setting": "MAGI2_4, Q86UL8; [2]", "result": "below the threshold"},
      {"measurement": "pKd", "setting": "GIPC2, Q8TF65; [2]", "result": 4.39},
      {"measurement": "pKd", "setting": "MAST1, Q9Y2H9; [2]", "result": 3.92},
      {"measurement": "pKd", "setting": "PDZD2_2, O15018; [2]", "result": 3.88},
      {"measurement": "pKd", "setting": "MAST2, Q6P0Q8; [2]", "result": 4.26},
      {"measurement": "pKd", "setting": "DLG2_3, Q15700; [2]", "result": 4.18},
      {"measurement": "pKd", "setting": "RADIL, Q96JH8; [2]", "result": "below the threshold"}
    ]}
  ]
}
